From the supplement of paper PMC10567573

B1: C22orf15 (parent)
chain: PRGRAHLLPNPYQQDFLGLPEELR
B2: FEM1B (parent)
chain: TLAALLLNRSESDIRYLLGYVSQQ

Variants of: B1
Assay: protein stability index of a GFP-peptide fusion (GPS, HEK-293T) (PSI 1-6); higher = more stable
Conditions: c terminus: a fixed tail appended
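Also: lentivirally expressed fusions sorted by FACS into six bins by GFP to DsRed ratio, PSI derived from sequencing read proportions per bin multiplied by bin number.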

Protein stability index, by site and new letter:
R24: F 3.17 | A 3.05 | Y 3.05 | E 4.17 | L 3.47 | Q 3.89 | M 2.97 | P 4.03 | N 3.94 | W 2.11 | H 3.3 | D 4.3 | I 3.64 | S 3.7 | T 4.11 | C 3.29 | V 3.63 | K 4.12 | G 3.8
Y12: S 4.54 | D 4.53 | I 4.36 | Q 4.07 | P 4.41 | L 3.85 | H 4.02 | T 4.44 | W 2.87 | N 4.61 | A 4.51 | K 4.11 | C 3.84 | F 3.5 | E 4.54 | R 4.33 | M 4.61 | V 4.17 | G 4.87
N10: Y 3.46 | R 3.53 | T 4.05 | W 2.88 | S 4.29 | V 4.14
P20: R 3.23 | L 2.76 | I 2.75 | Y 2.42 | C 2.85 | H 3.37 | S 3.39 | E 4.08 | N 3.62 | Q 3.53 | M 2.78 | G 3.14 | F 2.43 | D 4.07 | W 2.26 | V 2.46 | T 3.42 | K 3.38 | A 3.46
L23: H 4.68 | W 3.45 | R 4.04 | N 4.01 | T 3.94 | K 4.63 | C 4.08 | A 4.24 | M 4.33 | F 3.66 | Y 3.88 | Q 4.51 | I 4.09 | D 4.49 | V 3.68 | G 4.41 | S 4.17 | P 3.6
F16: V 4.17 | L 4.23 | M 4.15 | W 3.65 | E 4.63 | Q 3.84 | D 4.92 | I 4.01 | T 4.17 | N 4.36 | C 4.11 | H 4.44 | S 3.83 | Y 4.17 | P 4.12 | G 4.4 | R 4.15 | K 4.22 | A 4.12
Q13: T 3.64 | R 3.75 | I 3.1 | F 3.1 | C 3.39 | G 4.1 | L 3.43 | V 3.59 | E 4.05 | N 3.66 | A 3.7 | D 4.1 | M 3.42 | S 3.56 | Y 3.46 | P 4.21 | K 3.65 | H 3.74 | W 2.7
D15: M 2.97 | H 3.17 | K 3.3 | C 2.67 | T 3.44 | P 3.76 | Q 3.69 | V 3.36 | F 2.96 | I 3.22 | W 2.98 | A 3.38 | N 3.31 | L 2.99 | R 3.74 | G 3.44 | S 3.19 | Y 3.2 | E 3.74
L19: T 4.26 | M 3.53 | H 4.21 | F 3.31 | G 4.05 | W 3.75 | C 4.26 | D 4.68 | R 3.9 | I 3.57 | A 4.13 | N 4.1 | E 4.5 | Y 3.82 | Q 4.69 | P 4.22 | K 4.28 | S 4 | V 4
L17: D 4.87 | I 2.85 | S 4.2 | W 3.37 | N 4.28 | Q 4.4 | E 4.94 | H 4.41 | V 4.52 | P 4.3 | G 3.84 | Y 3.6 | F 3.47 | C 4.04 | A 4.43 | K 4.42 | R 4.03 | M 3.44 | T 4.17
E22: L 2.3 | R 3.76 | S 3.62 | N 3.65 | G 3.61 | M 2.64 | T 4.23 | D 4.06 | I 2.59 | V 3.11 | F 3.27 | A 3.47 | Y 2.52 | W 2.93 | C 3.22 | P 3.25 | K 3.47 | H 3.42 | Q 3.57
P11: A 3.41 | V 3.5 | H 3.33 | M 3.72 | I 3.55 | T 4.1 | E 4.74 | C 3.51 | D 4.12 | W 2.71 | R 3.33 | F 3.44 | Y 3.56 | N 4.24 | L 3.42 | Q 4.35 | G 4.3 | K 4.04 | S 3.83
Q14: H 3.92 | F 3.66 | D 4.7 | P 4.5 | L 3.54 | S 3.96 | N 3.91 | W 2.93 | V 3.26 | E 4.47 | T 3.77 | M 3.56 | R 3.19 | G 3.67 | C 3.46 | Y 2.98 | K 4.01 | I 3.19 | A 3.73
E21: W 2.9 | A 3.54 | K 3.56 | D 3.51 | G 3.61 | Q 3.06 | F 3.42 | L 3.02 | C 3.3 | I 2.89 | H 3.44 | T 2.81 | P 3.6 | M 3.14 | V 3.1 | N 3.63 | Y 2.75 | R 3.15 | S 3.29
G18: A 4.25 | T 4.05 | M 3.98 | L 3.7 | F 3.24 | K 4.13 | W 2.98 | S 3.94 | R 3.32 | E 4.36 | P 3.71 | Q 4.27 | I 3.49 | V 3.73 | C 3.9 | H 4.19 | D 4.66 | N 4.25 | Y 3.34

Variants of: B2
Assay: as above
Conditions: c terminus: a fixed tail appended

Protein stability index, by site and new letter:
T1: C 3.15 | W 1.93 | M 3.36 | S 2.98 | G 2.61 | Y 3.91 | L 1.72 | I 3.74 | Q 1.85 | A 2.5 | P 2.1 | K 2.89 | E 2.21 | D 1.66 | N 2.8
A4: F 3.05 | M 1.5 | I 2.37 | K 2.59 | E 2.94 | Q 2.05 | N 2.53 | P 2.09 | C 2.3 | G 1.68 | H 2.97 | R 3.48 | D 2.37
L2: Y 2.2 | R 1.84 | T 1.77 | K 1.64 | F 2.56 | M 2.24 | E 2.01 | P 1.93 | V 2.68 | W 2.87 | D 2.1 | Q 2.44 | H 1.43 | C 3.06 | G 2.11 | N 1.89 | S 1.57 | A 1.7
A3: G 2.15 | R 2.25 | F 3.58 | C 2.17 | P 2.08 | L 2.64 | Q 2.31 | M 2.35 | H 2.12 | K 1.18 | N 1.7 | E 2.92 | I 2.65 | V 3.73 | T 2.18 | W 2.38 | D 2
